One assay has as its target PTH1R/LRP6 complex (Homo sapiens, UniProt Q03431). In kind it is cell-based.
The target of assay [1] is T1, LRP6 (Homo sapiens, UniProt O75581).
T1 construct: The cell lysates were immunoprecipitated for endogenous LRP6; endogenous in cells; host or cells: UMR-106
The assay is described as follows: LRP6 phosphorylation at the PPPSP motif (Western blot). Format: cell-based. As to conditions: without added GSK3β; data not shown. As for the experimental part: (§1) UMR-106 cells were treated with either PTH or Wnt-3a. The cell lysates were immunoprecipitated for endogenous LRP6, and the precipitated immunocomplexes were detected by Western blotting with an antibody that specifically recognizes the phosphorylated PPPSP motifs (aa, 1490) (Tamai et al., 2004). […] To further confirm the role of PTH in inducing phosphorylation of LRP5 and LRP6 individually, HEK293 cells were transfected with HA-tagged LRP5, and the phosphorylated LRP5 was detected by Western blotting of the anti-HA immunoprecipitates with Ab1490.
(§2) If the observation is true, then the phosphorylated PPPSP motif will serve as an Axin docking site.
(A western blot detects proteins with antibodies after separation by electrophoresis.)

For assay [2], the target named is T2, LRP6 (Rattus norvegicus, UniProt A0A0G2K0H3).
T2 construct: The cell lysates were immunoprecipitated for endogenous LRP6; endogenous in cells; host or cells: UMR-106
T2 sequence (A0A0G2K0H3 20-1611): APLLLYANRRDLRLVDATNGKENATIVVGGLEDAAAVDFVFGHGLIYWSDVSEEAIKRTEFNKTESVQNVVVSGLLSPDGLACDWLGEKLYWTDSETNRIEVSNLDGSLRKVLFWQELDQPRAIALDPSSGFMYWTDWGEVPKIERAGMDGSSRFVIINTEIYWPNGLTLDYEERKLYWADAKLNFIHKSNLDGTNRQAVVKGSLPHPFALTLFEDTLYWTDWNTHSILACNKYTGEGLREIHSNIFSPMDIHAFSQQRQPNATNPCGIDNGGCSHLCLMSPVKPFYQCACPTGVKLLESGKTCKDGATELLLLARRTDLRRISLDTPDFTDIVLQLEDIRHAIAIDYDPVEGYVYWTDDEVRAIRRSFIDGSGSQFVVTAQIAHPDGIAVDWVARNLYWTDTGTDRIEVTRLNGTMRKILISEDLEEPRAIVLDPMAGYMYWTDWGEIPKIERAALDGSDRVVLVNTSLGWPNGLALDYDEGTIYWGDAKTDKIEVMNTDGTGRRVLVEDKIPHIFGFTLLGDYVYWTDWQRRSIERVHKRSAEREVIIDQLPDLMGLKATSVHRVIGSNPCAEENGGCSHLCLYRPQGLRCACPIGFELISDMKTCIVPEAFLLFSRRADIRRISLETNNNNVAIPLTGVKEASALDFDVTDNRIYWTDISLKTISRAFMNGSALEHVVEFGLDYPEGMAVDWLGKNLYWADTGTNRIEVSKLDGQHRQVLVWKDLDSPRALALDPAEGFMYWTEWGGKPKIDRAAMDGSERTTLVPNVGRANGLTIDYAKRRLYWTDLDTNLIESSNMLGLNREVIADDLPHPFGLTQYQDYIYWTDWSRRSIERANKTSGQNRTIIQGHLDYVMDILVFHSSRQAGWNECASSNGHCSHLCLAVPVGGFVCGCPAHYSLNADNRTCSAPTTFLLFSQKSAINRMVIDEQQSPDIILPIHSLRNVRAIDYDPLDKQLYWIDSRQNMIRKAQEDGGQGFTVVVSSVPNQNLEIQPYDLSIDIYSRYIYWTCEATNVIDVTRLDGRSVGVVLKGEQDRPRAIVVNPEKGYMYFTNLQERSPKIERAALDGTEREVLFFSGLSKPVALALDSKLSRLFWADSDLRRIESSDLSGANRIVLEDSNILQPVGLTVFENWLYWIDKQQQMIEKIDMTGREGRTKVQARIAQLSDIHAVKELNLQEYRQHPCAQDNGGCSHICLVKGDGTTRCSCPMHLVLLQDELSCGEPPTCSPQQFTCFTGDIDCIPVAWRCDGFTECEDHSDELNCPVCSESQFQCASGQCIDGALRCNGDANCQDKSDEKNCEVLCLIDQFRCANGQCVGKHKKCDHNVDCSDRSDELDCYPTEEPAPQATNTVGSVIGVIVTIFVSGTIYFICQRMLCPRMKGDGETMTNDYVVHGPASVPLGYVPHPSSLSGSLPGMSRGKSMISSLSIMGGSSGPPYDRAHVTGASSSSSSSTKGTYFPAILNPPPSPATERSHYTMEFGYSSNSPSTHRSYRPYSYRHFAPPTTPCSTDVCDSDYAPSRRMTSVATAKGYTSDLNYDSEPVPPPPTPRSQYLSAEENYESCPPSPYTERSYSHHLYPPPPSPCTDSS
The description is as above. Format: cell-based. As to conditions: UMR-106 cells, endogenous LRP6; data not shown. As for the experimental part: as §1, §2

In the next assay the test system is LRP6/Axin binding. The assay is described as follows: Axin-LRP6 binding immunoprecipitation assay. In kind it is cell-based. To be noted: without added GSK3β; data not shown.
The subject of a further assay is LRP5/6. Description: Immunostaining of phosphorylated PPPSP motif of LRP5/6 in rat trabecular bone. In kind it is in vivo. As to conditions: rats, single PTH injection. Here is the method: To further examine whether LRP5/6 mediates PTH-elevated β-catenin levels in vivo, trabecular bone sections were immunostained with the antibody against phosphorylated PPPSP motif. Formalin-fixed tissue sections of 5 μm thickness were deparaffinized in xylene and rehydrated in graded alcohols. Antigen retrieval was achieved by incubating tissue sections in boiling 10 mmol/L citrate buffer (pH 6.0) for 5 minutes in a microwave oven. All sections were then incubated with hydrogen peroxide for 5 minutes. Subsequently, sections were incubated with the primary antibodies against β-catenin or LRP6 1490 for 1 hour at room temperature. After rinsing the primary antibody in T-PBS, antibody detection was accomplished using the Super Sensitive biotin-streptavidin horseradish peroxidase detection kit (Biogenex, San Ramon, Calif.). The diaminobenzidine tetrachloride Super Sensitive substrate kit (Biogenex, San Ramon, Calif.) was used to visualize the antibody-antigen complex. The sections were then counterstained with hematoxylin. Appropriate negative controls, consisting of tissue sections of each case processed without the addition of primary antibody, were prepared along with positive multitissue control sections. Only those cases with greater than 10% immunohistochemical stains were considered as positive. Assessment of the immunohistochemical staining was performed independently by two pathologists. Contrasting results were discussed until an agreement was reached.
The pattern of phosphorylated LRP5/6 was correlated with the changes of β-catenin levels induced by PTH in Rat osteoblasts.

Assay [3] deals with T3, TGFβRII/PTH1R interaction (Homo sapiens, UniProt P37173+Q03431).
T3 construct: The 293T cells endogenously expressed TGFβRII; endogenous in cells; host or cells: 293T
T3 sequence (Q03431 27-593): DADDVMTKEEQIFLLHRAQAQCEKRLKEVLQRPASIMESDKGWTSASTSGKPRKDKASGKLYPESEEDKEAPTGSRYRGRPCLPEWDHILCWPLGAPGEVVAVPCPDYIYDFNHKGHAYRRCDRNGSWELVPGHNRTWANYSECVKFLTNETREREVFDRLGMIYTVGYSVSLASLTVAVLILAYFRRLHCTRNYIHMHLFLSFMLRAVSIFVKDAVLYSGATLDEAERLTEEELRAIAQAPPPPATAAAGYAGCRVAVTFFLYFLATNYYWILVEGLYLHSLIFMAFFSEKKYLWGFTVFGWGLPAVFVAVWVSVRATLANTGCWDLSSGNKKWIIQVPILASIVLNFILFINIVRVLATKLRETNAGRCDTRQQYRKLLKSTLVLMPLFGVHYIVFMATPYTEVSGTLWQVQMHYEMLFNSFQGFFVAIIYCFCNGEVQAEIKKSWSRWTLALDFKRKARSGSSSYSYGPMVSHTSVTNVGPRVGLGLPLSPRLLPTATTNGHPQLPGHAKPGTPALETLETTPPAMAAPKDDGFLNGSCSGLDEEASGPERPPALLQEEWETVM
T3 sequence (P37173 23-567): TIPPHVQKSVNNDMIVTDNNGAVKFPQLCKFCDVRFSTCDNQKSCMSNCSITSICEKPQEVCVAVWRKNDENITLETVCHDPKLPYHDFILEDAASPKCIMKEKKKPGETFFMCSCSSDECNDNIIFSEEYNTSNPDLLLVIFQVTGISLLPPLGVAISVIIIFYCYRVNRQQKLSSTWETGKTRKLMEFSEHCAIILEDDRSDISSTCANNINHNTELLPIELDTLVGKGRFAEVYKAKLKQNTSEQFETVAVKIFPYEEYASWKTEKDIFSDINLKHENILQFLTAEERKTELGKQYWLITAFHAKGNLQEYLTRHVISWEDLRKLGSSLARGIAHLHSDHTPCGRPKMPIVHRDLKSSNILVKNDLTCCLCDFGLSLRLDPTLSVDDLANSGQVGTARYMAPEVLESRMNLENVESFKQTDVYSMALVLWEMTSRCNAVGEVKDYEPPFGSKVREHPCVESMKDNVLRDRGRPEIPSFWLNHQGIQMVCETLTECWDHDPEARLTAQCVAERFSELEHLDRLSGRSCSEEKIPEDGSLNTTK
Description: Co-immunoprecipitation of TGFβRII and PTH1R in 293 cells. Format: cell-based. To be noted: cotransfected HEK293 cells; 10% FBS medium; PTH stimulation. As for the experimental part: Human embryonic kidney 293T cells in DMEM with 10% serum were treated with vehicle (water), TGF-β (2 ng/ml), or PTH (1-34) (50 nM) for 24 hours. The 293T cells endogenously expressed TGFβRII. The cells were cultured in DMEM with 10% serum and were split at 30%-40% confluent.
Immunoprecipitation assays were performed as described previously (Shi et al., 2004, J. Cell. Biol. 164:291-300). TGFβRII was immunoprecipitated from the cell extracts using anti-TGFβRII antibody (Santa Cruz Biotechnology, Inc.; 1:250 dilution), and the immunocomplex was detected by Western blotting with an antibody specific for PTH1R (Santa Cruz Biotechnology, Inc.; 1:200 dilution) to detect PTH1R protein. […] Furthermore, the interaction of PTH1R with TGFβRII can be in the form of monomers or dimers.
Next, the interaction was examined using a biochemical approach. PTH1R-HA was contransfected in HEK293 cells with Flag-TβRII. The cell lysate was subjected to HA immunoprecipitation, and associated TβRII was immunoblotted with anti-Flag antibody. TβRII specifically coprecipitated with PTH1R (FIG. 11) in 10% FBS medium, and the interaction was enhanced by PTH stimulation, whereas the kinase-dead mutant of TβRII lost the interaction with PTH1R (data not shown) even with treatment of PTH. The interaction of endogenous PTH1R and TβRII was also examined. […]

Another assay addresses T4, TGFβRII (Homo sapiens, UniProt P37173+Q03431).
T4 construct: expressed in transfected cells; host or cells: HEK293-PTH1R (HEK293 stably expressing HA-PTH1R)
The assay is described as follows: TGFβRII internalization in HEK293-PTH1R cells. Format: cell-based. As to conditions: stimulated with PTH for 30 minutes; 90% before stimulation. As for the experimental part:
TGFβRII tagged with Flag epitope was expressed in HEK293 cells that were expressing PTH1R or not, and the transfected cells were treated with PTH or control.
In particular, TGFβ1 treatment increases the number of cell membrane PTH1R. Therefore, the potential functional relationship of PTH with TGFβRII was examined. TGFβRII tagged with Flag epitope was transiently expressed in embryonic kidney 293 (HEK293) cells or HEK293 cells stably expressing PTH1R with HA (HEK293-PTH1R). In the absence of PTH, TGFβRII was present predominantly at the cell surface, with a few puncta in the cytosol (data not shown). […] To visualize the effect of PTH to the TβRII, a red fluorescent PTH (1-34) was synthesized in which the TMR fluorophore was attached to the side chain of the lysine residue at position 13 in PTH (1-34) (PTH^TMR).
To quantitate these observations, the cells were fixed at various time points and classified as three types: (1) TGFβRII is dominantly present at the cell surface, (2) TGFβRII locates to both the cell surface and vesicles in the cytosol, and (3) TGFβRII mainly localizes to the cytosol as vesicles. Before stimulation with PTH, TGFβRII was present at the cell surface in 90% of the cells. […] From 10 to 30 minutes after stimulation with PTH (1-34), cell-surface TβRII levels were reduced, indicative of receptor clearance from the cell surface membrane (FIG. 10B). […]

T4 sequence (P37173 23-567): as above
T4 sequence (Q03431 27-593): as the sequence (Q03431 27-593) above
T1 sequence (O75581 20-1613): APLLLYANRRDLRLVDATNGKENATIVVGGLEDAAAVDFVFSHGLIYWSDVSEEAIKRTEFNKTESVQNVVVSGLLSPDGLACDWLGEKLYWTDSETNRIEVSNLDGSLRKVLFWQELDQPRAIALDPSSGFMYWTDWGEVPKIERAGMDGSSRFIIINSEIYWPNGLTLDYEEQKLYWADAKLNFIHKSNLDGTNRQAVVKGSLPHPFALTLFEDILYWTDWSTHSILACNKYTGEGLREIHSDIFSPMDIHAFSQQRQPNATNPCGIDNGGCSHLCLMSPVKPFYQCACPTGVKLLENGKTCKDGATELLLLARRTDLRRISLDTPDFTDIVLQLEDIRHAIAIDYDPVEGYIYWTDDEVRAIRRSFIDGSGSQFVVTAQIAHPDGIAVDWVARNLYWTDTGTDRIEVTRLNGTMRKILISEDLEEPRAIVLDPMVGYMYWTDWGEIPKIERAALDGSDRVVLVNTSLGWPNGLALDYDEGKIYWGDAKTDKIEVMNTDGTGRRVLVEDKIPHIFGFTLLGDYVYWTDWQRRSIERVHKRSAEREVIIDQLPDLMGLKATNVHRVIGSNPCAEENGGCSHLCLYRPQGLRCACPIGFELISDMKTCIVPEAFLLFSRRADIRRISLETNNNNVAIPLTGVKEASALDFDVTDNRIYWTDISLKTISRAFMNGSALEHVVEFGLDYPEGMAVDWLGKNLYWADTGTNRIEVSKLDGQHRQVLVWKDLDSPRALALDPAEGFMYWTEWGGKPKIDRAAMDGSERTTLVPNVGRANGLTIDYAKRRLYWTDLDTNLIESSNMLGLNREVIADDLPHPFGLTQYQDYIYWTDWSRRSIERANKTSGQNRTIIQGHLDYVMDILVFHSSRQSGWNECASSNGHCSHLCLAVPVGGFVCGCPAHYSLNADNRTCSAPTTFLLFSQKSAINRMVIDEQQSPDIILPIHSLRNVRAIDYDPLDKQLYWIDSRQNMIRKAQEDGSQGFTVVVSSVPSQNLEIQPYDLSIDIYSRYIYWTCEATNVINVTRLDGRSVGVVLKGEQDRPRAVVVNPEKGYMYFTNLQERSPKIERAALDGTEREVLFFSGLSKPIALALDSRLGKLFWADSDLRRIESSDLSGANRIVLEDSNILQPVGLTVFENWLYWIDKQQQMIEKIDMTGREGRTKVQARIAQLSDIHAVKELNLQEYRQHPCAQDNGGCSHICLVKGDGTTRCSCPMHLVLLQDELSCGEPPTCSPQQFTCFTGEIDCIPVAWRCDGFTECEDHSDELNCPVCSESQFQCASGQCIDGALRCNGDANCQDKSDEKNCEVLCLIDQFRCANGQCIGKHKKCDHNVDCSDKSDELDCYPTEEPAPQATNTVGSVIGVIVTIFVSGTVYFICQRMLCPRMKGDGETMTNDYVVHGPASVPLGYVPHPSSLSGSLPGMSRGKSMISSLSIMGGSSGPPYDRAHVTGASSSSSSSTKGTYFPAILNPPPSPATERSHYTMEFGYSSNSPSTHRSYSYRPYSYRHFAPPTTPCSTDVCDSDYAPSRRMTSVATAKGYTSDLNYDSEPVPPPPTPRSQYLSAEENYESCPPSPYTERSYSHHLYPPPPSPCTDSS

On to “PTH: Parathyroid hormone ligand, form not stated at the place; figure legends give PTH (1-84) or PTH (1-34)”, for which the “enhancement of interaction of PTH1R with LRP6N or LRP6” value in the assay with PTH1R/LRP6 complex was “did not enhance the interaction of PTH1R with LRP6N or LRP6”. Besides, the “LRP6-associated PTH ligand (anti-VSVG immunoprecipitates, anti-PTH blot)” value with PTH1R/LRP6 complex (HEK 293 cells, 5×10^−7 M PTH (1-84) for 1 hour) is “immunoprecipitated only when both LRP6 and PTH1R were cotransfected”. Further, the “phosphorylation of LRP6, PTH alone” value with LRP6 [1] is reported as “much weaker stimulation”. Also, the “LRP6 phosphorylation at the PPPSP motif” value with LRP6 [2] is “rapidly induced LRP6 phosphorylation at the PPPSP motif”. The “Axin/LRP6 binding, PTH alone” value in the assay on LRP6/Axin binding is “undetectable”. Also, in the assay on LRP5/6, the “peak of LRP5/6 phosphorylation after PTH injection” value came out at 8 h and the “start of LRP5/6 phosphorylation after PTH injection” value worked out at 2 h. Also, in the assay with LRP5/6 (24 hours), the “LRP5/6 phosphorylation at 24 hours” value is given as “disappearing”. Besides, in the assay on LRP5/6 (data not shown), the “phosphorylation of LRP5/6 in preosteoblasts/osteoblasts at the surface of trabecular bone” value is “enhanced phosphorylation of LRP5/6” and the “total LRP5/6 protein level in osteoblasts of rat tibia bone” value was “remained unchanged”. In addition, in assay [3], the “interaction of PTH1R-HA with Flag-TβRII” value is recorded as “enhanced”. Moreover, the “cells exhibiting cell-surface localization of TGFβRII” value in the assay with TGFβRII is reported as “less than 10%”.
